No end group written: not given here.

Assay [1] concerns the target T1, Neogenin (full-length, 180 kDa) (chick, UniProt Q90610 1-1443).
T1 construct: Endogenous Neogenin of chick brain membranes, retinal axons and tecta, or Neogenin transfected into HEK293 cells; in Western blots it stood denatured
T1 sequence: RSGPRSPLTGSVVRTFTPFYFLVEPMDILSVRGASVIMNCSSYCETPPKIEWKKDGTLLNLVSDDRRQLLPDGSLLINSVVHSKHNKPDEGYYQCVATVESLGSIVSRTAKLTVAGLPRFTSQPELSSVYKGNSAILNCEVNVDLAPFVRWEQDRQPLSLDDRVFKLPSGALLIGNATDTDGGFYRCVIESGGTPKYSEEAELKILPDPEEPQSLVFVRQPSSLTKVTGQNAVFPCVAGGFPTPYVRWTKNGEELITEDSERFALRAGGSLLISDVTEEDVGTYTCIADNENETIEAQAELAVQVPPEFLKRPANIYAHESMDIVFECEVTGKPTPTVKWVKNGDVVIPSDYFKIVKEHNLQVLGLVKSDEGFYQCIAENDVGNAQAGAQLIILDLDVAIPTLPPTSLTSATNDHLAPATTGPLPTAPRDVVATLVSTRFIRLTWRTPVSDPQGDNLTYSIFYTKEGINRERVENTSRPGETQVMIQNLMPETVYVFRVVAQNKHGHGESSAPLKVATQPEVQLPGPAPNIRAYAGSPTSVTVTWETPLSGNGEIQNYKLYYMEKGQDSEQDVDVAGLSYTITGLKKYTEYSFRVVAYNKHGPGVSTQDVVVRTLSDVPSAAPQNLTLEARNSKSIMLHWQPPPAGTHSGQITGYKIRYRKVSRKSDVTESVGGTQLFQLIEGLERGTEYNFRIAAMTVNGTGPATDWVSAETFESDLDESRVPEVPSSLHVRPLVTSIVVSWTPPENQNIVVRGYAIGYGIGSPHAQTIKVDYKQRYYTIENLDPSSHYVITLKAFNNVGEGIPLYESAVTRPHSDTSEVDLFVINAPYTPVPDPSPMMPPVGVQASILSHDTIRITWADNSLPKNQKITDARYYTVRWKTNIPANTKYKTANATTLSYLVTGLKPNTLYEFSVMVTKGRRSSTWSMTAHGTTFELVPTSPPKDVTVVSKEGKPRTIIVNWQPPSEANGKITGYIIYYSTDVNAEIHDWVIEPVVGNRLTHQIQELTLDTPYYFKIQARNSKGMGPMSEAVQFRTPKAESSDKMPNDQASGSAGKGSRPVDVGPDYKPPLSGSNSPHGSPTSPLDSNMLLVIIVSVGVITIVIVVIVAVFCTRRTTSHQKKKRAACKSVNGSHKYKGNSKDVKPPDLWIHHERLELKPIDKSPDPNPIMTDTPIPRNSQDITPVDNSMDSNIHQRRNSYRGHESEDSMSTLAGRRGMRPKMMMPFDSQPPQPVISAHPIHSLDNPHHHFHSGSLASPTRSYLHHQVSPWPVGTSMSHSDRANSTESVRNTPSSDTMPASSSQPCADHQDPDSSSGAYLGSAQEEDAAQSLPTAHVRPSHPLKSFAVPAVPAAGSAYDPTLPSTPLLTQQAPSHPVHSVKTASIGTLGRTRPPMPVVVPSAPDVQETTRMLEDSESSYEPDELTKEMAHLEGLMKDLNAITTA
As to the kind of experiment: cell-based or functional assay.

Assay [2] addresses T2, 4Ig-domain of Neogenin fused to alkaline phosphatase (Gallus gallus, UniProt Q90610 1-383).
T2 construct: also called 4Ig-AP; not shown: alkaline phosphatase (AP)
T2 sequence: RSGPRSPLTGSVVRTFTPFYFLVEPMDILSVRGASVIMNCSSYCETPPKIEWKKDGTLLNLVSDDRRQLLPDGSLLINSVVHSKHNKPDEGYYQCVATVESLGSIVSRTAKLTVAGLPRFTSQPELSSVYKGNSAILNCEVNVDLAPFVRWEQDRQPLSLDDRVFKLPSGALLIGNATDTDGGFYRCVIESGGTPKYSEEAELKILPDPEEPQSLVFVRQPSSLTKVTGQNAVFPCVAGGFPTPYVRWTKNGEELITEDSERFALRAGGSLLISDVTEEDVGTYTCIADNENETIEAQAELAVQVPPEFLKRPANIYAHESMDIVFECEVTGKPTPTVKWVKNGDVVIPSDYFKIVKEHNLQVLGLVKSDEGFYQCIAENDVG
Nature of the assay: ELISA with AP fusions of Neogenin domains.

The target of assay [3] is T3, 6FNIII-domain of Neogenin fused to alkaline phosphatase (Gallus gallus, UniProt Q90610 429-1036).
T3 construct: also called 6FNIII-AP; fibronectin domain; not shown: alkaline phosphatase (AP)
T3 sequence: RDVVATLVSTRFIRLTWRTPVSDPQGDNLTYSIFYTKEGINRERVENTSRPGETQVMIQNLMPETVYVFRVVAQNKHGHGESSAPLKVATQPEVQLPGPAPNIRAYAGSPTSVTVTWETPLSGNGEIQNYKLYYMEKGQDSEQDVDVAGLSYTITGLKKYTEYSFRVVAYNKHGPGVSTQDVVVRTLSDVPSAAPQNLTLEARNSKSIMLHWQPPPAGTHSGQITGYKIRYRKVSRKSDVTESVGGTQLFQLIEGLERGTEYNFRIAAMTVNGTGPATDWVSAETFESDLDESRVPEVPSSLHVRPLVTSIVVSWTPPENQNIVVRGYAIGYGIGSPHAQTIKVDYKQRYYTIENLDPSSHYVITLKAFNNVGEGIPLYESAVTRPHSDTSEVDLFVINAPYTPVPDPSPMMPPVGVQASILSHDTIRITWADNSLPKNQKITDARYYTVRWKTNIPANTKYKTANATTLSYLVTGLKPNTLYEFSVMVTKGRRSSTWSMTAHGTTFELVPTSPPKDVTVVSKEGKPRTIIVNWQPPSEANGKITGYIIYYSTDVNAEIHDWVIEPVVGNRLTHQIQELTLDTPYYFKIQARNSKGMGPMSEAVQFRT
Nature of the assay: binding assay, 4Ig-AP and 6FNIII-AP on wells coated with RGMa proteins (FIG. 9B).

Assay [4] concerns the target T4, His-tagged 4Ig-domain of Neogenin (Gallus gallus, UniProt Q90610 1-383).
T4 construct: Secreted from transfected cells, purified on Ni-NTA; also called His-4Ig; Neogenin-4Ig; not shown: 6-His tag at the N-terminus; myc and 6-His tags of the pSectag 2B vector at the C-terminus
T4 sequence: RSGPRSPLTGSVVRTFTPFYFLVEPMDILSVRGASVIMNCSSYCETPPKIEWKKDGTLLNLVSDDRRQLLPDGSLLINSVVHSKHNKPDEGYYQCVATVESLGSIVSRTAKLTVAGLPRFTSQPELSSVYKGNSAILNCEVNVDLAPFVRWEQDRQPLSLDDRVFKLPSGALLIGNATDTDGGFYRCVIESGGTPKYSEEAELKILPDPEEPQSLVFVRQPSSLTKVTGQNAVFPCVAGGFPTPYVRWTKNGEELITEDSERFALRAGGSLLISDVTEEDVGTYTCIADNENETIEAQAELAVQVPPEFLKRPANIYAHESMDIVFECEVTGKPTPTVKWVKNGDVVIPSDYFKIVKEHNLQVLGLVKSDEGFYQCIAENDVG
Nature of the assay: plate binding assay, AP-tagged fragments on coated His-tagged Neogenin proteins (FIG. 17C). How it is done:
(§1) Using a 96-well microtiter plate (Corning Incorporated), wells were coated with 100 μl (10 μg/mL) of Poly-L-Lysine at 4° C. overnight. Wells were then washed three times with 100 μl of PBST (+0.02% Tween). 50 μl (2.5 μg/mL) of His-tagged: Full-length Neogenin; 4 Ig Neogenin; and FNIII Neogenin were coated onto each well for 1 hour at 37° C. Following three washes of 100 μl PBST, each well was then blocked with 300 μl of 3% BSA in PBST for 1 hour at 37° C. 50 μl (1.0 μg/mL) AP-tagged: N-RGMa (28-73); N-RGMa (28-54); N-RGMa (40-62); N-RGMa (54-73); N-RGMa (54-62) in 1% BSA+PBST was then added to each well and incubated at 37° C. for 1 hour. Each well was washed thoroughly three times with 100 μl PBST followed by subsequent equilibration of each well with Alkaline Phosphatase (AP) developing buffer (100 mM NaHCO₃, 1 mM MgCl₂). The reaction was developed using AP developing buffer supplemented with, p-nitrophenyl phosphate (pNPP)(Sigma-Aldrich) and allowed to develop until color development. The reaction was stopped with the addition of 50 μl (0.1M) NaOH. The absorbance of each reaction was measured using a microplate autoreader (BIO-TEK Instruments Inc.) at […] wavelength. […]

The target of assay [5] is T1, Neogenin (full-length, 180 kDa). Nature of the assay: told in a figure legend; assay not named there (peptide also used on beads in the pull-down of FIG. 2B).
Assay [6] has as its target T3, 6FNIII-domain of Neogenin fused to …. Nature of the assay: ELISA with AP fusions of Neogenin domains.
Assay [7] concerns the target T4, His-tagged 4Ig-domain of Neogenin. As to the kind of experiment: plate binding assay, AP-tagged fragment on coated His-tagged 4Ig-domain (FIG. 17C). How it is done: as §1

As for “RGMa on the cell membrane (from UniProt Q8JG54 150-404) (ligand)”, the intensity correlation quotient (co-localization in growth cones, immunofluorescence) in assay [1] came out at 0.32.

B1: N-inh peptide (amino acids 77-113 of RGMa), His-tagged (peptide)
peptide: GDLAYHSAVHGIDDLMVQHNCSKDGPTSQPRLRTLPP
notes: not shown: 6-His tag at the N-terminus; myc tag and 6-His tag at the C-terminus
Turning to B1, the binding result in assay [2] is on record as “no binding”; in assay [3], “binds”.

B2: N-RGMa (40-62aa), AP-tagged (peptide)
chain: WAATSGSHHLGAEETPEFCTALR
modifications: also: alkaline phosphatase tag, sequence and position not given here
notes: not shown: alkaline phosphatase tag of the Psectag2B-AP plasmid
As to B2, the binding result in assay [4] is on record as “binds”. In the case of GAEETPEFCTALRAYAHCTRRTARTCRGDLAYHSAVHGIDDLMVQHNCSK (not shown: 6-His tag at the N-terminus) [N-RGMa^50-99 control peptide (amino acid residues 50-99 of RGMa)], in assay [5], the binding result is given as “no binding”.

B3: N-RGMa (54-73aa), AP-tagged (peptide)
chain: TPEFCTALRAYAHCTRRTAR
modifications: cysteine pairing not given here; also: alkaline phosphatase tag, sequence and position not given here
notes: also called N-RGMa (55-73aa); not shown: alkaline phosphatase tag of the Psectag2B-AP plasmid
As for B3, the binding result in assay [4] is “binds”.

B4: N-Raft peptide (amino acids 28-73 of RGMa), His-tagged (peptide)
peptide: SPCKILKCNSEFWAATSGSHHLGAEETPEFCTALRAYAHCTRRTAR
notes: also called N-RGMa^28-73; N-RGMa28-73; not shown: 6-His tag at the N-terminus
Turning to B4, the binding result in assay [6] was “no binding”.

B5: N-RGMa (54-62aa), AP-tagged (peptide)
chain: TPEFCTALR
modifications: also: alkaline phosphatase tag, sequence and position not given here
notes: as for B2
With B5, the binding result in assay [7] is listed as “no binding (tested: 1.0 µg/mL)”.

B6: N-RGMa (28-54aa), AP-tagged (peptide)
chain: SPCKILKCNSEFWAATSGSHHLGAEET
modifications: cysteine pairing not given here; also: alkaline phosphatase tag, sequence and position not given here
notes: as for B2
Consider B6, for which the binding result in assay [7] is given as “no binding (tested: 1.0 µg/mL)”.

The record behind these values is patent publication US20160271230A1 (UNIVERSITY HEALTH NETWORK, published 2016).
